Substitutions are numbered along the chain they refer to.
Assays:
hAng-2FD-mFc Y-475-H = biological target: T1, hAng-2FD-mFc Y-475-H (human, UniProt O15123 282-496); assay: SPR 25C, hAng-2FD-mFc captured on anti-mFc, 100 nM analyte
T1 construct: not shown: mouse Fc
T1 chain: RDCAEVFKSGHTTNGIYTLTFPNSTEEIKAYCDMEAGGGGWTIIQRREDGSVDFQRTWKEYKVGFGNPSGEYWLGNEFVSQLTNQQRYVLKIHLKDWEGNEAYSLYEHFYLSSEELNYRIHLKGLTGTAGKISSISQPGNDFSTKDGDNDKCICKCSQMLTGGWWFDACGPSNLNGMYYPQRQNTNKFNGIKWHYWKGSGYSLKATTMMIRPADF

hAng-2FD-mFc F-469-L = biological target: T2, hAng-2FD-mFc F-469-L (human, UniProt O15123 282-496); assay: as above
T2 construct: not shown: mouse Fc
T2 chain: T1 chain with F188L, H194Y

hAng-2FD-mFc K-432-N = biological target: T3, hAng-2FD-mFc K-432-N (human, UniProt O15123 282-496); assay: as above
T3 construct: not shown: mouse Fc
T3 chain: T1 chain with K151N, H194Y

hAng-2FD-mFc N-467-G = biological target: T4, hAng-2FD-mFc N-467-G (human, UniProt O15123 282-496); assay: as above
T4 construct: not shown: mouse Fc
T4 chain: T1 chain with N186G, H194Y

hAng-2FD-mFc I-434-M = biological target: T5, hAng-2FD-mFc I-434-M (human, UniProt O15123 282-496); assay: as above
T5 construct: not shown: mouse Fc
T5 chain: T1 chain with I153M, H194Y

[1] = biological target: T6, Full-length human Ang-1 protein conjugated to 6x histidine tag (human, UniProt Q15389 20-498, limits assumed); assay: blocking ELISA, 0.6 nM hAng-1-His to coated hTie-2-mFc
T6 construct: Bought (R&D Systems); printed as full-length; also called hAng-1 WT; Ang-1-His; not shown: 6x histidine tag
T6 sequence (looked up): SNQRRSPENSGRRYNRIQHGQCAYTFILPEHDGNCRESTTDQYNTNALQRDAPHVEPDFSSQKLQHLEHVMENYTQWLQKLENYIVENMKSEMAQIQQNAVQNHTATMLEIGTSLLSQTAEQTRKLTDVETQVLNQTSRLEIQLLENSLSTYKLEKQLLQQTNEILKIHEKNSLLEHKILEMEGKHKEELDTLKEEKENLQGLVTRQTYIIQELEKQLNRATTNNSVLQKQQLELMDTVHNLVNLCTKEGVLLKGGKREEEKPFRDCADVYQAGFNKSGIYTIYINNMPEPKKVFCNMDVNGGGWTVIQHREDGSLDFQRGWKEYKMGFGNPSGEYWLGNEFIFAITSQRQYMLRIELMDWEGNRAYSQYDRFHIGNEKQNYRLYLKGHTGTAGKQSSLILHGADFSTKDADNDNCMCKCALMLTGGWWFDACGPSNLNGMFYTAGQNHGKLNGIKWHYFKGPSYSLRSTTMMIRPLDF
Method: Briefly, hTie-2-mFc (a chimeric construct consisting of human Tie-2 conjugated to mouse IgG; SEQ ID NO:525) was coated onto 96-well plates at a concentration of 2 μg/ml and incubated overnight followed by washing four times in wash buffer (PBS with 0.05% Tween-20). The plate was then blocked with PBS (Irvine Scientific, Santa Ana, Calif.) containing 0.5% BSA (Sigma-Aldrich Corp., St. Louis, Mo.) for one hour at room temperature. […] The antibody/antigen mixture was then added to the plate containing hTie-2-mFc and incubated for one hour at room temperature. […] Absorbance was read at OD₄₅₀ for 0.1 sec.

B1: H1H744N (antibody, V domains shown)
VH: QVQLVQSGVEVKKPGASVKVSCKTSGYTFSNNGFSWVRQAPGQGLEWLGWISGYNGNTNYAQKFQGRVTMTTDTSTSTAYMELRTLRSDDTAVYYCARDQDYSNFHWLDPWGQGTLVTVAS
VL: DIQMTQSPSSVSASVGDRVIITCRASQGLSSWLAWYQQKPGTAPKLLIHSASSLQTGVPSRFSGSGSGTEFALTINSLQPEDFGTYYCQQANSFPLTFGGGTRVEIK
- Kd (hAng-2FD-mFc Y-475-H): 306 pM
- RU (hAng-2FD-mFc Y-475-H): 247 RU
- T ½ (hAng-2FD-mFc Y-475-H): 2.27 h
- Kd (hAng-2FD-mFc F-469-L): 195 pM
- RU (hAng-2FD-mFc F-469-L): 180 RU
- T ½ (hAng-2FD-mFc F-469-L): 3.95 h
- Kd (hAng-2FD-mFc K-432-N): 48.7 pM
- RU (hAng-2FD-mFc K-432-N): 137 RU
- T ½ (hAng-2FD-mFc K-432-N): 28.2 h
- Kd (hAng-2FD-mFc N-467-G): 77.2 pM
- RU (hAng-2FD-mFc N-467-G): 139 RU
- T ½ (hAng-2FD-mFc N-467-G): 16.9 h
- Kd (hAng-2FD-mFc I-434-M): 31.8 pM
- RU (hAng-2FD-mFc I-434-M): 213 RU
- T ½ (hAng-2FD-mFc I-434-M): 43.1 h
- IC50 [1]: 187000 pM
